Experimental findings from US5364782A, “Mutant microbial α-amylases with increased thermal, acid and/or alkaline stability” (Gist-Brocades N.V., priority 1989, dated 1994) are described below.

Substrate in data set [1]: O=[N+]([O-])c1ccc(OC2O[C@H](CO)[C@@H](O[C@H]3O[C@H](CO)[C@@H](O[C@H]4O[C@H](CO)[C@@H](O[C@H]5O[C@H](CO)[C@@H](O[C@H]6O[C@H](CO)[C@@H](O)[C@H](O)[C@H]6O)[C@H](O)[C@H]5O)[C@H](O)[C@H]4O)[C@H](O)[C@H]3O)[C@H](O)[C@H]2O)cc1
The data set is described as follows: Enzymatic activity with 4NP-DP5 as substrate, Michaelis-Menten kinetics (WT). The class given is biochemical, Bacillus licheniformis. The settings on record: other: substrate 4NP-DP5 0-1 mM, 35° C., 50 mM MOPS, 50 mM NaCl, 2 mM CaCl2, pH 7.15, WT α-amylase. The protocol: (§1) The enzymatic activity of B. licheniformis α-amylase WT and mutants was measured using 4-nitrophenyl-maltopentaoside (4NP-DP5) as a substrate, 4 nitrophenol and maltopentaose are formed, this reaction can be followed by measuring the change in OD 405 The assay was performed at 35° C. in 50 mM MOPS, 50 mM NaCl, 2 mM CaCl2 (PH 7.15) and 0-1 mM 4NP-DP5.
(§2) Initial rates were measured and E-nitrophenol was taken as 10,000 l/M/cm.

Substrate in data set [2]: O=[N+]([O-])c1ccc(OC2O[C@H](CO)[C@@H](O[C@H]3O[C@H](CO)[C@@H](O[C@H]4O[C@H](CO)[C@@H](O[C@H]5O[C@H](CO)[C@@H](O[C@H]6O[C@H](CO)[C@@H](O)[C@H](O)[C@H]6O)[C@H](O)[C@H]5O)[C@H](O)[C@H]4O)[C@H](O)[C@H]3O)[C@H](O)[C@H]2O)cc1
The data set is described as follows: Enzymatic activity with 4NP-DP5 as substrate, Michaelis-Menten kinetics (mutant 2D5). The class given is biochemical, Bacillus licheniformis. The note with it: other: substrate 4NP-DP5 0-1 mM, 35° C., 50 mM MOPS, 50 mM NaCl, 2 mM CaCl2, pH 7.15, 2D5 α-amylase. On the procedure:
2D5 contained the D7 mutation and in addition threonine 149 was replaced by isoleucine (2D5=H133Y, T149I).
as §1, §2

B1: Bacillus licheniformis α-amylase, WT (wild type, B. licheniformis T5; SEQ ID NO: 3) (Bacillus licheniformis) (protein)
chain: ANLNGTLMQYFEWYMPNDGQHWKRLQNDSAYLAEHGITAVWIPPAYKGTSQADVGYGAYDLYDLGEFHQKGTVRTKYGTKGELQSAIKSLHSRDINVYGDVVINHKGGADATEDVTAVEVDPADRNRVISGEHRIKAWTHFHFPGRGSTYSDFKWHWYHFDGTDWDESRKLNRIYKFQGKAWDWEVSNENGNYDYLMYADIDYDHPDVAAEIKRWGTWYANELQLDGFRLDAVKHIKFSFLRDWVNHVREKTGKEMFTVAEYWQNDLGALENYLNKTNFNHSVFDVPLHYQFHAASTQGGGYDMRKLLNSTVVSKHPLKAVTFVDNHDTQPGQSLESTVQTWFKPLAYAFILTRESGYPQVFYGDMYGTKGDSQREIPALKHKIEPILKARKQYAYGAQHDYFDHHDIVGWTREGDSSVANSGLAALITDGPGGAKRMYVGRQNAGETWHDITGNRSEPVVINSEGWGEFHVNGGSVSIYVQR
notes: made in house; host or cells: E. coli WK6
As usually defined, the Km is the concentration of substrate that gives half-maximal velocity. For orientation: Vmax means the top rate of the reaction or transport when substrate is in excess. For B1, in data set [1], the Km worked out at 112 µM and the Vmax is 66.7 ± 0.9 µmol/min/mg.

B2: Bacillus licheniformis α-amylase mutant 2D5 (H133Y, T149I) (Bacillus licheniformis; H162Y/T178I) (protein)
chain: ANLNGTLMQYFEWYMPNDGQHWKRLQNDSAYLAEHGITAVWIPPAYKGTSQADVGYGAYDLYDLGEFHQKGTVRTKYGTKGELQSAIKSLHSRDINVYGDVVINHKGGADATEDVTAVEVDPADRNRVISGEYRIKAWTHFHFPGRGSIYSDFKWHWYHFDGTDWDESRKLNRIYKFQGKAWDWEVSNENGNYDYLMYADIDYDHPDVAAEIKRWGTWYANELQLDGFRLDAVKHIKFSFLRDWVNHVREKTGKEMFTVAEYWQNDLGALENYLNKTNFNHSVFDVPLHYQFHAASTQGGGYDMRKLLNSTVVSKHPLKAVTFVDNHDTQPGQSLESTVQTWFKPLAYAFILTRESGYPQVFYGDMYGTKGDSQREIPALKHKIEPILKARKQYAYGAQHDYFDHHDIVGWTREGDSSVANSGLAALITDGPGGAKRMYVGRQNAGETWHDITGNRSEPVVINSEGWGEFHVNGGSVSIYVQR
notes: as for B1
As for B2, in data set [2], the Michaelis constant (Km) was determined as 119 µM and the Vmax is 66.3 ± 0.7 µmol/min/mg.
